Data reported in patent publication US20200352914A1, “METHODS OF TREATING HYPERTENSION WITH ACTIVATORS OF TIE-2” (Aerpio Pharmaceuticals, Inc., priority 2019, published 2020).

Columns and labels:
[1] = biological target: HPTPβ (Homo sapiens, UniProt P23467); experiment: HPTPβ inhibitory activity (IC50); type: biochemical
[2] = test system: eNOS; experiment: eNOS and Akt phosphorylation in human endothelial cells (immunoprecipitation, immunoblotting); type: cell-based
Method: Confluent monolayers of human endothelial cells expressing FLAG-tagged eNOS cultured overnight in MCDB131 containing 0.1% BSA and then incubated with increasing concentrations of Compound 2 (0.3-30 μmol/L) or solvent (DMSO) for 30 minutes. In separate experiments, human endothelial cells were cultured overnight in MCDB131 containing 0.1% BSA and then incubated treated with Compound 2 (30 μmol/L) or solvent for 30 minutes and then stimulated with Yoda1 (1 μmol/L) or solvent for an additional 30 minutes. To inhibit Src, cells were pre-incubated with PP2 (1 μmol/L) for 30 min before incubation with Compound 2 and stimulation with Yoda1. After two washes with cold PBS, cells were collected with the aid of cell scrapers in a lysis buffer containing Tris/HCl pH 7.5 (50 mmol/L), NaCl (150 mmol/L), Triton X-100 (1%), NaPPi (10 mmol/L), NaF (20 mmol/L), orthovanadate (2 mmol/L), okadaic acid (10 nmol/L), β-glycerophosphate (50 mmol/L), phenylmethylsulfonyl fluoride (230 μmol/L), and EDTA-free protease inhibitors mix. The cell mixture was incubated for 30 minutes at 4° C. with vortexing, followed by centrifugation at 13000 rpm for 10 minutes at 4° C. To assess the eNOS-VE-PTP interaction, the following modifications were applied: 1) cells were incubated with the lysis buffer for one hour on an end-over-end rocker at 4° C. and gently vortexed until no cell clumps were observed; 2) lysates were not centrifuged after lysis. FLAG-tagged eNOS was immunoprecipitated using 30 μL of packed Anti-FLAG M2 Affinity Gel per mg protein lysate overnight. The recovered immunoprecipitates were washed three times with the lysis buffer, eluted by boiling samples for 10 minutes in SDS sample buffer, and then analyzed by SDS-PAGE and immunoblotting.
Protein samples were separated by SDS-PAGE and then transferred to […] nitrocellulose membranes. Membranes were incubated overnight with primary antibodies against phospho-Tyr81 eNOS, phospho-Ser1177 eNOS, phospho-Ser633 eNOS, eNOS, phospho-Ser473 Akt, Akt, ABL1, VE-PTP, GAPDH, β-actin, followed by species-specific secondary antibodies anti-IgG conjugated with HRP. Proteins were visualized by enhanced chemiluminescence.

[3] = test system: Tie-2; experiment: Tie-2 phosphorylation in hypoxic HUVECs; type: cell-based, human; settings: HUVECs hypoxic 16 h; ANG-1 alone 500 ng/mL
Method: HUVECs cultured under hypoxic conditions for 16 hours were treated with 5 μM Compound 1 for 10 minutes in the presence or absence of ANG-1 or ANG-2 (500 ng/mL). Untreated cells served as controls. The cells were then lysed and Tie-2 was immunoprecipitated and probed with anti-phosphotyrosine (p-Tyr) to indicate Tie-2 activation, or anti-Tie-2 as a loading control.

[4] = test system: subjects with DME; experiment: Sitting systolic blood pressure and pulse rate in subjects with DME, Compound 1 with or without ranibizumab (Example 9, TABLE 27); type: in vivo, human
Method: A total of 144 subjects with DME were split into 3 treatment groups. Group 1 received a subcutaneous injection of Compound 1 (15 mg) and a sham intravitreal injection. Group 2 received a subcutaneous injection of Compound 1 (15 mg) and an intravitreal injection of ranibizumab (0.3 mg). Group 3 received a subcutaneous injection of a placebo, and an intravitreal injection of ranibizumab (0.3 mg).
FIG. 19 and TABLE 27 show the effect of Compound 1 treatment, both alone and in combination with ranibizumab, on the sitting systolic blood pressure of subjects.
FIG. 20 compares the effects of Compound 1 treatment, alone (Group 1), or in combination with ranibizumab (Group 2), on subjects with a baseline sitting systolic blood pressure of 140 mmHg or greater, versus those with a baseline sitting systolic blood pressure of less than 140 mmHg. […] The correlation between baseline sitting systolic blood pressure and the change in blood pressure from baseline seen 30 and 90 minutes following specified treatments is shown in FIG. 21 and FIG. 22, respectively.

[5] = subjects with DME, Compound 1 15 mg subcutaneous, ranibizumab 0.3 mg intravitreal, 30 minutes post-dose
[6] = subjects with DME, Compound 1 15 mg subcutaneous, ranibizumab 0.3 mg intravitreal, 90 minutes post-dose

Chain of HPTPβ (P23467 23-1997): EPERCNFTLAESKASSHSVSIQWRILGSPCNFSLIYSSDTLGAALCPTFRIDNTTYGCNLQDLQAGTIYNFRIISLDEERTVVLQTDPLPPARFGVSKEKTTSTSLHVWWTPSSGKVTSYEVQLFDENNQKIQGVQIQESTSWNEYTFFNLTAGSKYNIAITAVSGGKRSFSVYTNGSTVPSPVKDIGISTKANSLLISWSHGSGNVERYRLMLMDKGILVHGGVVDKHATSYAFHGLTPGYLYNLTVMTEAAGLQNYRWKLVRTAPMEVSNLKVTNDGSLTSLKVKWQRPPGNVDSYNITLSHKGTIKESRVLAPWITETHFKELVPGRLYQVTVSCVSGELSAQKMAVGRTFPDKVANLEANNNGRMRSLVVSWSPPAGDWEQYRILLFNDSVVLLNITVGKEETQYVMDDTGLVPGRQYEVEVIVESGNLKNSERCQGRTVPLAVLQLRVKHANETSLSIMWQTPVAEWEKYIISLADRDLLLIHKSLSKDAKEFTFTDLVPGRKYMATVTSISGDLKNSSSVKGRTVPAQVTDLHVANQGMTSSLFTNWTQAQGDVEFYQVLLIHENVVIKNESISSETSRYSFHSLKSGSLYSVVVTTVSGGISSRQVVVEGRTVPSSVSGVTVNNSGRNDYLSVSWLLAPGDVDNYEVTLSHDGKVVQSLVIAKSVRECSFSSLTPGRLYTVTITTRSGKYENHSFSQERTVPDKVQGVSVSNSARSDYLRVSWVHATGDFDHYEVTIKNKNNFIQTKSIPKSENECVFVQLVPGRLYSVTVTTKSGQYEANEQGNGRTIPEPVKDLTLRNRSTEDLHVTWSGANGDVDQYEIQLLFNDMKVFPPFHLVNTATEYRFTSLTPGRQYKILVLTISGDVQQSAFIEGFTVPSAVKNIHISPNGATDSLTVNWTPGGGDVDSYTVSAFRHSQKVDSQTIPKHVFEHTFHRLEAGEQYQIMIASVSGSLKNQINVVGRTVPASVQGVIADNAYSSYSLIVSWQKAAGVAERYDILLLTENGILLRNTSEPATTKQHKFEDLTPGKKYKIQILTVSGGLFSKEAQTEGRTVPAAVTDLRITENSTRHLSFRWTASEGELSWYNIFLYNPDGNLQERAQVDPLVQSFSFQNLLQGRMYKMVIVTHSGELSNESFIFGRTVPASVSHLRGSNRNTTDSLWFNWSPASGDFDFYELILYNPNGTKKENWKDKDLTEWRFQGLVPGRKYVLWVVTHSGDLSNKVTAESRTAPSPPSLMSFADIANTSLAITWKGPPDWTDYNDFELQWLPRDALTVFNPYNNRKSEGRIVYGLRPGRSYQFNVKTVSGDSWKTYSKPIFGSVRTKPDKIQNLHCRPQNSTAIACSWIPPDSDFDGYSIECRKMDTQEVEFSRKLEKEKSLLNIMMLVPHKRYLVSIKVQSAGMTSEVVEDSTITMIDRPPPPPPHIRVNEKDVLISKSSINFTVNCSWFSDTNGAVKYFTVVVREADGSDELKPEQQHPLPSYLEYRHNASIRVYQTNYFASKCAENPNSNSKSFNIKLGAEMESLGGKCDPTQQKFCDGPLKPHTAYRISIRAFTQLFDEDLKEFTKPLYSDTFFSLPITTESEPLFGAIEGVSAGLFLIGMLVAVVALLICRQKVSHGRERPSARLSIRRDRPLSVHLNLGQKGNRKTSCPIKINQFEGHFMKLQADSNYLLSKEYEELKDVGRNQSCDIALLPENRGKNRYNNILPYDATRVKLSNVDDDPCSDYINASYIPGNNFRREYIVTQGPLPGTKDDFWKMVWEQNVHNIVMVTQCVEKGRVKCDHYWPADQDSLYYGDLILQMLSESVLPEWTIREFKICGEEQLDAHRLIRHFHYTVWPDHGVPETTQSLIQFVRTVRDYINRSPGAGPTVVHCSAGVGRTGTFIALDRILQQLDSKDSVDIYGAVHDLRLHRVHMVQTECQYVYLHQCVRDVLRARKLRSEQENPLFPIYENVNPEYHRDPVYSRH

## COC(=O)N[C@@H](Cc1ccccc1)C(=O)N[C@@H](Cc1ccc(NS(=O)(=O)O)cc1)c1nc(-c2ccccc2)cs1 [AA21]
[1]
  IC50: < 0.002 nM

## CCCc1nc([C@H](Cc2ccc(NS(=O)(=O)O)cc2)NC(=O)OC(C)(C)C)cs1 [AA65]
[1]
  IC50: 40 nM

## CC(C)(C)n1nc(-c2ccc(Cl)cc2)c2c(N)ncnc21 [PP2, reference compound]
[2]; PP2 1 μmol/L pre-incubation
  basal and Yoda1-induced tyrosine phosphorylation of eNOS: significantly reduced

## Clc1cccc(Cl)c1CSc1nnc(-c2cnccn2)s1 [Yoda1, reference compound]
[2]; Yoda1 1 μmol/L, 30 min
  phosphorylation of Akt and eNOS: elicited the phosphorylation of Akt on Ser473, and phosphorylation of eNOS on Ser1177 and Ser633

B1: ANG-1: angiopoietin 1, an agonist of Tie-2 (protein, UniProt Q15389 16-498, looked up)
Angiopoietin-1: HIGCSNQRRSPENSGRRYNRIQHGQCAYTFILPEHDGNCRESTTDQYNTNALQRDAPHVEPDFSSQKLQHLEHVMENYTQWLQKLENYIVENMKSEMAQIQQNAVQNHTATMLEIGTSLLSQTAEQTRKLTDVETQVLNQTSRLEIQLLENSLSTYKLEKQLLQQTNEILKIHEKNSLLEHKILEMEGKHKEELDTLKEEKENLQGLVTRQTYIIQELEKQLNRATTNNSVLQKQQLELMDTVHNLVNLCTKEGVLLKGGKREEEKPFRDCADVYQAGFNKSGIYTIYINNMPEPKKVFCNMDVNGGGWTVIQHREDGSLDFQRGWKEYKMGFGNPSGEYWLGNEFIFAITSQRQYMLRIELMDWEGNRAYSQYDRFHIGNEKQNYRLYLKGHTGTAGKQSSLILHGADFSTKDADNDNCMCKCALMLTGGWWFDACGPSNLNGMFYTAGQNHGKLNGIKWHYFKGPSYSLRSTTMMIRPLDF
[3]
  Tie-2 phosphorylation (p-Tyr): did not increase Tie-2 phosphorylation

B2: ranibizumab (antibody, chains of the INN, looked up, V domains shown)
VH: EVQLVESGGGLVQPGGSLRLSCAASGYDFTHYGMNWVRQAPGKGLEWVGWINTYTGEPTYAADFKRRFTFSLDTSKSTAYLQMNSLRAEDTAVYYCAKYPYYYGTSHWYFDVWGQGTLVTVSS
VL: DIQLTQSPSSLSASVGDRVTITCSASQDISNYLNWYQQKPGKAPKVLIYFTSSLHSGVPSRFSGSGSGTDFTLTISSLQPEDFATYYCQQYSTVPWTFGQGTKVEIK
modifications: Fab
[4]; baseline sitting SBP 140 mmHg or greater, ranibizumab alone (Group 3)
  blood pressure change: Minimal change in blood pressure
[4]; ranibizumab 0.3 mg intravitreal alone (Group 3), 30 and 90 minutes post-dose
  decrease in sitting systolic blood pressure compared to baseline: not seen

B3: Placebo + Ranibizumab (antibody, chains of the INN, looked up, V domains shown)
VH: EVQLVESGGGLVQPGGSLRLSCAASGYDFTHYGMNWVRQAPGKGLEWVGWINTYTGEPTYAADFKRRFTFSLDTSKSTAYLQMNSLRAEDTAVYYCAKYPYYYGTSHWYFDVWGQGTLVTVSS
VL: DIQLTQSPSSLSASVGDRVTITCSASQDISNYLNWYQQKPGKAPKVLIYFTSSLHSGVPSRFSGSGSGTDFTLTISSLQPEDFATYYCQQYSTVPWTFGQGTKVEIK
modifications: Fab with placebo
[4]; [5]
  Sitting systolic blood pressure, Change from pre-dose to 30 minutes post-dose, Max: 31 mmHg
  Sitting systolic blood pressure, Change from pre-dose to 30 minutes post-dose, Mean (SD): 2.2 (14.32) mmHg
  Sitting systolic blood pressure, Change from pre-dose to 30 minutes post-dose, Median: 1.0 mmHg
  Sitting systolic blood pressure, Change from pre-dose to 30 minutes post-dose, Min: −37 mmHg
[4]; [6]
  Sitting systolic blood pressure, Change from pre-dose to 90 minutes post-dose, Max: 35 mmHg
  Sitting systolic blood pressure, Change from pre-dose to 90 minutes post-dose, Mean (SD): −0.1 (14.46) mmHg
  Sitting systolic blood pressure, Change from pre-dose to 90 minutes post-dose, Median: 2.0 mmHg
  Sitting systolic blood pressure, Change from pre-dose to 90 minutes post-dose, Min: −30 mmHg
